This note sets out measurements from the supplement of paper PMC11908140.

The chains are these.
B1: library; numbered along this chain (parent)
chain: MRKPRAAVGSGHRKQAASQEGRQKHAKNNSQAKPSACDGLARQPEEVVLQASVSSYHLFRDVAEVTAFRGSLLSWYDQEKRDLPWRRRAEDEMDLDRRAYAVWVSEVMLQQTQVATVINYYTGWMQKWPTLQDLASASLEEVNQLWAGLGYYSRGRRLQEGARKVVEELGGHMPRTAETLQQLLPGVGRYTAGAIASIAFGQATGVVDGNVARVLCRVRAIGADPSSTLVSQQLWGLAQQLVDPARPGDFNQAAMELGATVCTPQRPLCSQCPVESLCRARQRVEQEQLLASGSLSGSPDVEECAPNTGQCHLCLPPSEPWDQTLGVVNFPRKASRKPPREESSATCVLEQPGALGAQILLVQRPNSGLLAGLWEFPSVTWEPSEQLQRKALLQELQRWAGPLPATHLRHLGEVVHTFSHIKLTYQVYGLALEGQTPVTTVPPGARWLTQEEFHTAAVSTAMKKVFRVYQGQQPGTCMGSKRSQVSSPCSRKKPRMGQQVLDNFFRSHISTDAHSLNSAAQ
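Note: cells sorted at 72 h after reporter transfection.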

The series covers variants of B1. In words: 8OG:A repair function score (normalized; synonymous = 0, nonsense = -1) (normalized log-likelihood score); higher = more repair activity (WT-like). The note with it: with 8OG:A DNA repair reporter (GFP) in HEK-293 MUTYH KO cells. In a few lines: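 Lentiviral MUTYH cDNA NNN codon-scan libraries were expressed in MUTYH knockout HEK-293 cells with 10 pg/ml doxycycline, and the cells received an 8OG:A GFP repair reporter together with mCherry. At 72 h, viable mCherry+ cells went into GFP+ (repair) or GFP− bins, three replicates per tile, before tile amplicons were sequenced. A repair function score was then built from per-tile Rosace fitness scores, anchored on the synonymous and nonsense distributions. Synonymous medians sat at 0 and nonsense at -1, and variants under 300 counts per million at the start were left out.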
For MRKPRAAVGSGHRKQAASQEGRQKHAKNNSQAKPSACDGLARQPEEVVLQASVSSYHLFRDVAEVTAFRGSLLSWYDQEKRDLPWRRRAEDEMDLDRRAYAVWVSEVMLQQTQVATVINYYTGWMQKWPTLQDLASASLEEVNQLWAGLGYYSRGRRLQEGARKVVEELGGHMPRTAETLQQLLPGVGRYTAGAIASIAFGQATGVVDGNVARVLCRVRAIGADPSSTLVSQQLWGLAQQLVDPARPGDFNQAAMELGATVCTPQRPLCSQCPVESLCRARQRVEQEQLLASGSLSGSPDVEECAPNTGQCHLCLPPSEPWDQTLGVVNFPRKASRKPPREESSATCVLEQPGALGAQILLVQRPNSGLLAGLWEFPSVTWEPSEQLQRKALLQELQRWAGPLPATHLRHLGEVVHTFSHIKLTYQVYGLALEGQDPVTTVPPGARWLTQEEFHTAAVSTAMKKVFRVYQGQQPGTCMGSKRSQVSSPCSRKKPRMGQQVLDNFFRSHISTDAHSLNSAAQ [T436D], the “8OG:A repair function score” value amounted to 0.113.
For MRKPRAAVGSGHRKQAASQEGRQKHAKNNSQAKPSACDGLARQPEEVVLQASVSSYHLFRDVAEVTAFRGSLLSWYDQEKRDLPWRRRAEDEMDLDRRAYAVWVSEVMLQQTQVATVINYYTGWMQKWPTLQDLASASLEEVNQLWAGLGYYSRGRRLQEGARKVVEELGGHMPRTAETLQQLLPGVGRYTAGAIASIAFGQATGVVDGNVARVLCRVRAIGADPSSTLVSQQLWGLAQQLVDPARPGDFNQAAMELGATVCTPQRPLCSQCPVESLCRARQRVEQEQLLASGSLSGSPDVEECAPNTGQCHLCLPPSEPWDQTLGVVNFPRKASRKPPREESSATCVLEQPGALGAQILLVQRPNSGLLAGLWEFPSVTWEPSEQLQRKALLQELQRWAGPLPATHLRHLGEVVHTFSHIKLTYQVYGLALEGQAPVTTVPPGARWLTQEEFHTAAVSTAMKKVFRVYQGQQPGTCMGSKRSQVSSPCSRKKPRMGQQVLDNFFRSHISTDAHSLNSAAQ [T436A], the “8OG:A repair function score” value turned out to be 0.195.
Under MRKPRAAVGSGHRKQAASQEGRQKHAKNNSQAKPSACDGLARQPEEVVLQASVSSYHLFRDVAEVTAFRGSLLSWYDQEKRDLPWRRRAEDEMDLDRRAYAVWVSEVMLQQTQVATVINYYTGWMQKWPTLQDLASASLEEVNQLWAGLGYYSRGRRLQEGARKVVEELGGHMPRTAETLQQLLPGVGRYTAGAIASIAFGQATGVVDGNVARVLCRVRAIGADPSSTLVSQQLWGLAQQLVDPARPGDFNQAAMELGATVCTPQRPLCSQCPVESLCRARQRVEQEQLLASGSLSGSPDVEECAPNTGQCHLCLPPSEPWDQTLGVVNFPRKASRKPPREESSATCVLEQPGALGAQILLVQRPNSGLLAGLWEFPSVTWEPSEQLQRKALLQELQRWAGPLPATHLRHLGEVVHTFSHIKLTYQVYGLALEGQCPVTTVPPGARWLTQEEFHTAAVSTAMKKVFRVYQGQQPGTCMGSKRSQVSSPCSRKKPRMGQQVLDNFFRSHISTDAHSLNSAAQ [T436C] stands -0.201; under MRKPRAAVGSGHRKQAASQEGRQKHAKNNSQAKPSACDGLARQPEEVVLQASVSSYHLFRDVAEVTAFRGSLLSWYDQEKRDLPWRRRAEDEMDLDRRAYAVWVSEVMLQQTQVATVINYYTGWMQKWPTLQDLASASLEEVNQLWAGLGYYSRGRRLQEGARKVVEELGGHMPRTAETLQQLLPGVGRYTAGAIASIAFGQATGVVDGNVARVLCRVRAIGADPSSTLVSQQLWGLAQQLVDPARPGDFNQAAMELGATVCTPQRPLCSQCPVESLCRARQRVEQEQLLASGSLSGSPDVEECAPNTGQCHLCLPPSEPWDQTLGVVNFPRKASRKPPREESSATCVLEQPGALGAQILLVQRPNSGLLAGLWEFPSVTWEPSEQLQRKALLQELQRWAGPLPATHLRHLGEVVHTFSHIKLTYQVYGLALEGVTPVTTVPPGARWLTQEEFHTAAVSTAMKKVFRVYQGQQPGTCMGSKRSQVSSPCSRKKPRMGQQVLDNFFRSHISTDAHSLNSAAQ [Q435V], -0.157.
Regarding MRKPRAAVGSGHRKQAASQEGRQKHAKNNSQAKPSACDGLARQPEEVVLQASVSSYHLFRDVAEVTAFRGSLLSWYDQEKRDLPWRRRAEDEMDLDRRAYAVWVSEVMLQQTQVATVINYYTGWMQKWPTLQDLASASLEEVNQLWAGLGYYSRGRRLQEGARKVVEELGGHMPRTAETLQQLLPGVGRYTAGAIASIAFGQATGVVDGNVARVLCRVRAIGADPSSTLVSQQLWGLAQQLVDPARPGDFNQAAMELGATVCTPQRPLCSQCPVESLCRARQRVEQEQLLASGSLSGSPDVEECAPNTGQCHLCLPPSEPWDQTLGVVNFPRKASRKPPREESSATCVLEQPGALGAQILLVQRPNSGLLAGLWEFPSVTWEPSEQLQRKALLQELQRWAGPLPATHLRHLGEVVHTFSHIKLTYQVYGLALEGYTPVTTVPPGARWLTQEEFHTAAVSTAMKKVFRVYQGQQPGTCMGSKRSQVSSPCSRKKPRMGQQVLDNFFRSHISTDAHSLNSAAQ [Q435Y], the “8OG:A repair function score” value came to 0.0772.
Under MRKPRAAVGSGHRKQAASQEGRQKHAKNNSQAKPSACDGLARQPEEVVLQASVSSYHLFRDVAEVTAFRGSLLSWYDQEKRDLPWRRRAEDEMDLDRRAYAVWVSEVMLQQTQVATVINYYTGWMQKWPTLQDLASASLEEVNQLWAGLGYYSRGRRLQEGARKVVEELGGHMPRTAETLQQLLPGVGRYTAGAIASIAFGQATGVVDGNVARVLCRVRAIGADPSSTLVSQQLWGLAQQLVDPARPGDFNQAAMELGATVCTPQRPLCSQCPVESLCRARQRVEQEQLLASGSLSGSPDVEECAPNTGQCHLCLPPSEPWDQTLGVVNFPRKASRKPPREESSATCVLEQPGALGAQILLVQRPNSGLLAGLWEFPSVTWEPSEQLQRKALLQELQRWAGPLPATHLRHLGEVVHTFSHIKLTYQVYGLALEGSTPVTTVPPGARWLTQEEFHTAAVSTAMKKVFRVYQGQQPGTCMGSKRSQVSSPCSRKKPRMGQQVLDNFFRSHISTDAHSLNSAAQ [Q435S] stands 0.261.
With MRKPRAAVGSGHRKQAASQEGRQKHAKNNSQAKPSACDGLARQPEEVVLQASVSSYHLFRDVAEVTAFRGSLLSWYDQEKRDLPWRRRAEDEMDLDRRAYAVWVSEVMLQQTQVATVINYYTGWMQKWPTLQDLASASLEEVNQLWAGLGYYSRGRRLQEGARKVVEELGGHMPRTAETLQQLLPGVGRYTAGAIASIAFGQATGVVDGNVARVLCRVRAIGADPSSTLVSQQLWGLAQQLVDPARPGDFNQAAMELGATVCTPQRPLCSQCPVESLCRARQRVEQEQLLASGSLSGSPDVEECAPNTGQCHLCLPPSEPWDQTLGVVNFPRKASRKPPREESSATCVLEQPGALGAQILLVQRPNSGLLAGLWEFPSVTWEPSEQLQRKALLQELQRWAGPLPATHLRHLGEVVHTFSHIKLTYQVYGLALEGMTPVTTVPPGARWLTQEEFHTAAVSTAMKKVFRVYQGQQPGTCMGSKRSQVSSPCSRKKPRMGQQVLDNFFRSHISTDAHSLNSAAQ [Q435M], the “8OG:A repair function score” value was 0.051.
As for MRKPRAAVGSGHRKQAASQEGRQKHAKNNSQAKPSACDGLARQPEEVVLQASVSSYHLFRDVAEVTAFRGSLLSWYDQEKRDLPWRRRAEDEMDLDRRAYAVWVSEVMLQQTQVATVINYYTGWMQKWPTLQDLASASLEEVNQLWAGLGYYSRGRRLQEGARKVVEELGGHMPRTAETLQQLLPGVGRYTAGAIASIAFGQATGVVDGNVARVLCRVRAIGADPSSTLVSQQLWGLAQQLVDPARPGDFNQAAMELGATVCTPQRPLCSQCPVESLCRARQRVEQEQLLASGSLSGSPDVEECAPNTGQCHLCLPPSEPWDQTLGVVNFPRKASRKPPREESSATCVLEQPGALGAQILLVQRPNSGLLAGLWEFPSVTWEPSEQLQRKALLQELQRWAGPLPATHLRHLGEVVHTFSHIKLTYQVYGLALEGPTPVTTVPPGARWLTQEEFHTAAVSTAMKKVFRVYQGQQPGTCMGSKRSQVSSPCSRKKPRMGQQVLDNFFRSHISTDAHSLNSAAQ [Q435P], the figure is 0.288.
As for MRKPRAAVGSGHRKQAASQEGRQKHAKNNSQAKPSACDGLARQPEEVVLQASVSSYHLFRDVAEVTAFRGSLLSWYDQEKRDLPWRRRAEDEMDLDRRAYAVWVSEVMLQQTQVATVINYYTGWMQKWPTLQDLASASLEEVNQLWAGLGYYSRGRRLQEGARKVVEELGGHMPRTAETLQQLLPGVGRYTAGAIASIAFGQATGVVDGNVARVLCRVRAIGADPSSTLVSQQLWGLAQQLVDPARPGDFNQAAMELGATVCTPQRPLCSQCPVESLCRARQRVEQEQLLASGSLSGSPDVEECAPNTGQCHLCLPPSEPWDQTLGVVNFPRKASRKPPREESSATCVLEQPGALGAQILLVQRPNSGLLAGLWEFPSVTWEPSEQLQRKALLQELQRWAGPLPATHLRHLGEVVHTFSHIKLTYQVYGLALEGTTPVTTVPPGARWLTQEEFHTAAVSTAMKKVFRVYQGQQPGTCMGSKRSQVSSPCSRKKPRMGQQVLDNFFRSHISTDAHSLNSAAQ [Q435T], the figure is 0.028; as for MRKPRAAVGSGHRKQAASQEGRQKHAKNNSQAKPSACDGLARQPEEVVLQASVSSYHLFRDVAEVTAFRGSLLSWYDQEKRDLPWRRRAEDEMDLDRRAYAVWVSEVMLQQTQVATVINYYTGWMQKWPTLQDLASASLEEVNQLWAGLGYYSRGRRLQEGARKVVEELGGHMPRTAETLQQLLPGVGRYTAGAIASIAFGQATGVVDGNVARVLCRVRAIGADPSSTLVSQQLWGLAQQLVDPARPGDFNQAAMELGATVCTPQRPLCSQCPVESLCRARQRVEQEQLLASGSLSGSPDVEECAPNTGQCHLCLPPSEPWDQTLGVVNFPRKASRKPPREESSATCVLEQPGALGAQILLVQRPNSGLLAGLWEFPSVTWEPSEQLQRKALLQELQRWAGPLPATHLRHLGEVVHTFSHIKLTYQVYGLALEGRTPVTTVPPGARWLTQEEFHTAAVSTAMKKVFRVYQGQQPGTCMGSKRSQVSSPCSRKKPRMGQQVLDNFFRSHISTDAHSLNSAAQ [Q435R], 0.0382; as for MRKPRAAVGSGHRKQAASQEGRQKHAKNNSQAKPSACDGLARQPEEVVLQASVSSYHLFRDVAEVTAFRGSLLSWYDQEKRDLPWRRRAEDEMDLDRRAYAVWVSEVMLQQTQVATVINYYTGWMQKWPTLQDLASASLEEVNQLWAGLGYYSRGRRLQEGARKVVEELGGHMPRTAETLQQLLPGVGRYTAGAIASIAFGQATGVVDGNVARVLCRVRAIGADPSSTLVSQQLWGLAQQLVDPARPGDFNQAAMELGATVCTPQRPLCSQCPVESLCRARQRVEQEQLLASGSLSGSPDVEECAPNTGQCHLCLPPSEPWDQTLGVVNFPRKASRKPPREESSATCVLEQPGALGAQILLVQRPNSGLLAGLWEFPSVTWEPSEQLQRKALLQELQRWAGPLPATHLRHLGEVVHTFSHIKLTYQVYGLALEGWTPVTTVPPGARWLTQEEFHTAAVSTAMKKVFRVYQGQQPGTCMGSKRSQVSSPCSRKKPRMGQQVLDNFFRSHISTDAHSLNSAAQ [Q435W], -0.125.
As for MRKPRAAVGSGHRKQAASQEGRQKHAKNNSQAKPSACDGLARQPEEVVLQASVSSYHLFRDVAEVTAFRGSLLSWYDQEKRDLPWRRRAEDEMDLDRRAYAVWVSEVMLQQTQVATVINYYTGWMQKWPTLQDLASASLEEVNQLWAGLGYYSRGRRLQEGARKVVEELGGHMPRTAETLQQLLPGVGRYTAGAIASIAFGQATGVVDGNVARVLCRVRAIGADPSSTLVSQQLWGLAQQLVDPARPGDFNQAAMELGATVCTPQRPLCSQCPVESLCRARQRVEQEQLLASGSLSGSPDVEECAPNTGQCHLCLPPSEPWDQTLGVVNFPRKASRKPPREESSATCVLEQPGALGAQILLVQRPNSGLLAGLWEFPSVTWEPSEQLQRKALLQELQRWAGPLPATHLRHLGEVVHTFSHIKLTYQVYGLALEGNTPVTTVPPGARWLTQEEFHTAAVSTAMKKVFRVYQGQQPGTCMGSKRSQVSSPCSRKKPRMGQQVLDNFFRSHISTDAHSLNSAAQ [Q435N], the figure is -0.138.
